From US20160264649A1

What was measured:
Test in all cases: cell-based or functional assay
[1] = molecular target: HIV-1 92RW008 Env (HIV-1)
[2] = molecular target: HIV-1 Env of isolate 92TH021 (subtype AE) (HIV-1)
[3] = molecular target: HIV-1 Env of isolate 92WR009 (subtype A) (HIV-1)
[4] = molecular target: HIV-1 Env of isolate 92WR021 (subtype A) (HIV-1)
[5] = molecular target: HIV-1 Env of isolate 93IN905 (subtype C) (HIV-1)
[6] = molecular target: HIV-1 Env of isolate 93MW959 (subtype C) (HIV-1)
[7] = molecular target: HIV-1 Env of isolate 98IN022 (subtype C) (HIV-1)
[8] = molecular target: HIV-1 Env of isolate MG RM-C-019 (subtype C) (HIV-1)
[9] = molecular target: HIV-1 Env of isolate MG RM-C-023 (subtype C) (HIV-1)
[10] = molecular target: HIV-1 Env of isolate MG RM-C-025 (subtype C) (HIV-1)
[11] = molecular target: HIV-1 Env of isolate MGRM-AE-001 (subtype AE) (HIV-1)
[12] = molecular target: HIV-1 Env of isolate MGRM-AE-004 (subtype AE) (HIV-1)
[13] = molecular target: HIV-1 Env of isolate MGRM-AE-008 (subtype AE) (HIV-1)
[14] = molecular target: HIV-1 Env of isolate MGRM-Chronic-B-012 (subtype B) (HIV-1)
[15] = molecular target: HIV-1 Env of isolate MGRM-Chronic-B-017 (subtype B) (HIV-1)
[16] = molecular target: HIV-1 Env of isolate MGRM-Chronic-B-024 (subtype B) (HIV-1)
[17] = molecular target: HIV-1 Env of isolate MGRM-D-011 (subtype D) (HIV-1)
[18] = molecular target: HIV-1 Env of isolate MGRM-D-012 (subtype D) (HIV-1)
[19] = molecular target: HIV-1 Env of isolate MGRM-D-016 (subtype D) (HIV-1)
[20] = molecular target: HIV-1 Env of isolate MGRM-D-026 (subtype D) (HIV-1)
[21] = molecular target: HIV-1 Env of isolate MGRM-D-028 (subtype D) (HIV-1)
[22] = molecular target: HIV-1 Env of isolate MGRM-F1-020 (subtype F) (HIV-1)
[23] = molecular target: HIV-1 Env of isolate TRJ04551.58 (subtype B) (HIV-1)
[24] = molecular target: HIV-1 Env of pseudovirus isolate MGRM-G-001 (subtype G) (HIV-1)
[25] = molecular target: HIV-1 Env of pseudovirus isolate MGRM-G-009 (subtype G) (HIV-1)
[26] = molecular target: HIV-1 Env of pseudovirus isolate MGRM-G-016 (subtype G) (HIV-1)
[27] = molecular target: HIV-1 Env of pseudovirus isolate MGRM-G-024 (subtype G) (HIV-1)
[28] = molecular target: HIV-1 Env of pseudovirus isolate MGRM-G-027 (subtype G) (HIV-1)
[29] = molecular target: HIV-1 98IN022 Env on pseudovirus (HIV-1)
[30] = molecular target: HIV-1 IAVI-C18 Env (HIV-1)
HIV-1 JRCSF Env (HIV-1) = HIV-1 JRCSF Env (HIV-1) (UniProt P20871)
[31] = molecular target: HIV-1 MGRM-AG-003 Env (HIV-1)
[32] = molecular target: HIV-1 MGRM-C-004 Env on pseudovirus (HIV-1)
[33] = molecular target: HIV-1 MGRM-C-013 Env on pseudovirus (HIV-1)
[34] = molecular target: HIV-1 MGRM-C-019 Env on pseudovirus (HIV-1)
[35] = molecular target: HIV-1 MGRM-C-022 Env on pseudovirus (HIV-1)
[36] = molecular target: HIV-1 MGRM-C-023 Env on pseudovirus (HIV-1)
[37] = molecular target: HIV-1 MGRM-Chronic-B-010 Env on pseudovirus (HIV-1)
[38] = molecular target: HIV-1 MGRM-Chronic-B-017 Env on pseudovirus (HIV-1)
[39] = molecular target: HIV-1 MGRM-D-001 Env (HIV-1)
[40] = molecular target: HIV-1 MGRM-D-008 Env (HIV-1)
[41] = molecular target: HIV-1 MGRM-D-012 Env (HIV-1)
[42] = molecular target: HIV-1 MGRM-D-016 Env (HIV-1)
[43] = molecular target: HIV-1 MGRM-D-022 Env (HIV-1)
[44] = molecular target: HIV-1 MGRM-F1-021 Env (HIV-1)
[45] = molecular target: HIV-1 MGRM-G-004 Env (HIV-1)
[46] = molecular target: HIV-1 MGRM-G-028 Env (HIV-1)
[47] = molecular target: HIV-1 TRO.11 (Acute) Env on pseudovirus (HIV-1)

## PGV04 (antibody)
[1]
  IC50: 0.014 mg/L
[2]
  IC50 (pseudovirus neutralization): 1.29 mg/L
[3]
  IC50 (pseudovirus neutralization): 0.108 mg/L
[4]
  IC50 (pseudovirus neutralization): 0.038 mg/L
[5]
  IC50 (µg/mL), pseudovirus neutralization: 0.332 µg/mL
[6]
  IC50 (µg/mL), pseudovirus neutralization: > 50 µg/mL
[7]
  IC50 (µg/mL), pseudovirus neutralization: 5.69 µg/mL
[8]
  IC50 (µg/mL), pseudovirus neutralization: 9.63 µg/mL
[9]
  IC50 (µg/mL), pseudovirus neutralization: 0.128 µg/mL
[10]
  IC50 (µg/mL), pseudovirus neutralization: > 50 µg/mL
[11]
  IC50 (pseudovirus neutralization): 0.063 mg/L
[12]
  IC50 (pseudovirus neutralization): 0.183 mg/L
[13]
  IC50 (pseudovirus neutralization): 1.51 mg/L
[14]
  IC50: > 50 mg/L
[15]
  IC50: 0.129 mg/L
[16]
  IC50: 2.52 mg/L
[17]
  IC50 (pseudovirus neutralization): 0.025 mg/L
[18]
  IC50 (pseudovirus neutralization): 0.125 mg/L
[19]
  IC50 (pseudovirus neutralization): 0.201 mg/L
[20]
  IC50 (pseudovirus neutralization): 1.76 mg/L
[21]
  IC50 (pseudovirus neutralization): 1.01 mg/L
[22]
  IC50 (pseudovirus neutralization): 5.99 mg/L
[23]
  IC50 (µg/mL), pseudovirus neutralization: 0.028 µg/mL
[24]
  IC50: > 50 mg/L
[25]
  IC50: 0.043 mg/L
[26]
  IC50: 0.019 mg/L
[27]
  IC50: 0.033 mg/L
[28]
  IC50: 0.125 mg/L

## 2G12 (antibody)
[29]
  IC50: > 50 mg/L
[30]
  neutralization IC50: > 50 mg/L
  neutralization IC90: > 50 mg/L
HIV-1 JRCSF Env (HIV-1)
  neutralization IC50: 0.66 mg/L
  neutralization IC90: 5.38 mg/L
[31]
  IC50 (µg/ml), pseudovirus neutralization: > 50 µg/mL
[32]
  IC50: > 50 mg/L
[33]
  IC50: > 50 mg/L
[34]
  IC50: > 50 mg/L
[35]
  IC50: > 50 mg/L
[36]
  IC50: > 50 mg/L
[37]
  IC50: 1.5 mg/L
[38]
  IC50: > 50 mg/L
[39]
  IC50 (µg/ml), pseudovirus neutralization: > 50 µg/mL
[40]
  IC50 (µg/ml), pseudovirus neutralization: > 50 µg/mL
[41]
  IC50 (µg/ml), pseudovirus neutralization: > 50 µg/mL
[42]
  IC50 (µg/ml), pseudovirus neutralization: > 50 µg/mL
[43]
  IC50 (µg/ml), pseudovirus neutralization: > 50 µg/mL
[44]
  IC50 (pseudovirus neutralization): 14.1 mg/L
[45]
  IC50 (µg/ml), pseudovirus neutralization: > 50 µg/mL
[46]
  IC50 (µg/ml), pseudovirus neutralization: 28.2 µg/mL
[47]
  IC50: 0.29 mg/L

## 1495_C14 (PGC14) (antibody)
[29]
  IC50: 9 mg/L
[30]
  neutralization IC50: > 50 mg/L
HIV-1 JRCSF Env (HIV-1)
  neutralization IC50: > 50 mg/L
[31]
  IC50 (µg/ml), pseudovirus neutralization: > 50 µg/mL
[32]
  IC50: > 50 mg/L
[33]
  IC50: > 50 mg/L
[34]
  IC50: 12 mg/L
[35]
  IC50: > 50 mg/L
[36]
  IC50: > 50 mg/L
[37]
  IC50: 27 mg/L
[38]
  IC50: > 50 mg/L
[39]
  IC50 (µg/ml), pseudovirus neutralization: > 50 µg/mL
[40]
  IC50 (µg/ml), pseudovirus neutralization: > 50 µg/mL
[41]
  IC50 (µg/ml), pseudovirus neutralization: > 50 µg/mL
[42]
  IC50 (µg/ml), pseudovirus neutralization: > 50 µg/mL
[43]
  IC50 (µg/ml), pseudovirus neutralization: > 50 µg/mL
[44]
  IC50 (pseudovirus neutralization): 46 mg/L
[45]
  IC50 (µg/ml), pseudovirus neutralization: > 50 µg/mL
[46]
  IC50 (µg/ml), pseudovirus neutralization: > 50 µg/mL
[47]
  IC50: > 50 mg/L

## VRC01 (antibody)
[1]
  IC50: 0.037 mg/L
[2]
  IC50 (pseudovirus neutralization): 0.616 mg/L
[3]
  IC50 (pseudovirus neutralization): 0.187 mg/L
[4]
  IC50 (pseudovirus neutralization): 0.066 mg/L
[5]
  IC50: 0.138 mg/L
[6]
  IC50: 0.053 mg/L
[7]
  IC50: 0.342 mg/L
[8]
  IC50: 1.13 mg/L
[9]
  IC50: 0.077 mg/L
[10]
  IC50: 2.36 mg/L
[11]
  IC50 (pseudovirus neutralization): 0.167 mg/L
[12]
  IC50 (pseudovirus neutralization): 0.187 mg/L
[13]
  IC50 (pseudovirus neutralization): 1.72 mg/L
[14]
  IC50: 1.03 mg/L
[15]
  IC50: 0.141 mg/L
[16]
  IC50: 0.377 mg/L
[17]
  IC50 (pseudovirus neutralization): 0.075 mg/L
[18]
  IC50 (pseudovirus neutralization): 0.216 mg/L
[19]
  IC50 (pseudovirus neutralization): 0.452 mg/L
[20]
  IC50 (pseudovirus neutralization): 0.435 mg/L
[21]
  IC50 (pseudovirus neutralization): 0.377 mg/L
[22]
  IC50 (pseudovirus neutralization): 1.89 mg/L
[23]
  IC50: 0.06 mg/L
[24]
  IC50: 0.0371 mg/L
[25]
  IC50: 0.073 mg/L
[26]
  IC50: 0.063 mg/L
[27]
  IC50: 0.025 mg/L
[28]
  IC50: 0.36 mg/L

## 1496_C09 (PG9) (TCN-109) (antibody)
[1]
  IC50: 0.006 mg/L
[29]
  IC50: 0.006 mg/L
[2]
  IC50 (pseudovirus neutralization): 0.059 mg/L
[3]
  IC50 (pseudovirus neutralization): 0.05 mg/L
[4]
  IC50 (pseudovirus neutralization): 0.027 mg/L
[5]
  IC50 (µg/mL), pseudovirus neutralization: 0.035 µg/mL
[6]
  IC50 (µg/mL), pseudovirus neutralization: 0.054 µg/mL
[7]
  IC50 (µg/mL), pseudovirus neutralization: 0.003 µg/mL
[8]
  IC50 (µg/mL), pseudovirus neutralization: 0.005 µg/mL
[9]
  IC50 (µg/mL), pseudovirus neutralization: 0.614 µg/mL
[10]
  IC50 (µg/mL), pseudovirus neutralization: 0.148 µg/mL
[11]
  IC50 (pseudovirus neutralization): 20.6 mg/L
[12]
  IC50 (pseudovirus neutralization): 0.009 mg/L
[13]
  IC50 (pseudovirus neutralization): 31.5 mg/L
[14]
  IC50: 0.2 mg/L
[15]
  IC50: 0.688 mg/L
[16]
  IC50: 0.222 mg/L
[17]
  IC50 (pseudovirus neutralization): 0.071 mg/L
[18]
  IC50 (pseudovirus neutralization): 16.2 mg/L
[19]
  IC50 (pseudovirus neutralization): 0.098 mg/L
[20]
  IC50 (pseudovirus neutralization): 23.7 mg/L
[21]
  IC50 (pseudovirus neutralization): 20.2 mg/L
[22]
  IC50 (pseudovirus neutralization): 6.4 mg/L
[23]
  IC50 (µg/mL), pseudovirus neutralization: 0.858 µg/mL
[24]
  IC50: 0.166 mg/L
[25]
  IC50: 10.7 mg/L
[26]
  IC50: 1.36 mg/L
[27]
  IC50: 0.163 mg/L
[28]
  IC50: 0.007 mg/L
[30]
  neutralization IC50: 0.0535 mg/L
  neutralization IC90: 0.866 mg/L
HIV-1 JRCSF Env (HIV-1)
  neutralization IC50: < 0.0025 mg/L
  neutralization IC90: < 0.0025 mg/L
[31]
  IC50 (µg/ml), pseudovirus neutralization: 9.71 µg/mL
[32]
  IC50: 1.18 mg/L
[34]
  IC50: 0.01 mg/L
[35]
  IC50: 0.19 mg/L
[36]
  IC50: 0.51 mg/L
[37]
  IC50: 0.004 mg/L
[38]
  IC50: 0.32 mg/L
[40]
  IC50 (µg/ml), pseudovirus neutralization: 6.86 µg/mL
[41]
  IC50 (µg/ml), pseudovirus neutralization: 9.31 µg/mL
[42]
  IC50 (µg/ml), pseudovirus neutralization: 0.1 µg/mL
[47]
  IC50: 5.43 mg/L
